The text below walks through data of PMC10156792, “The structure and evolutionary diversity of the fungal E3-binding protein” (Communications Biology, 2023).

For data set [1], the target named is N.crassa E3-binding protein in the native pyruvate dehydrogenase complex (N.crassa). The data set is described as follows: cryo-EM structure; native PDC data EMPIAR-10489 reprocessed; symmetry-expanded consensus alignments only, C3 symmetry, 4.1 Å.
Data set [2] deals with the molecule itself. The data set is described as follows: cryo-EM structure; recombinant co-expressed CTD:CBD sub-complex (tE2/PX261); symmetry expansion, signal subtraction and classification of E2 trimers, C3 symmetry, 3.2 Å.

Turning to “N.crassa E3-binding protein in the native pyruvate dehydrogenase complex (natural protein)”, the stoichiometry N in data set [1] came out at 3.

B1: N.crassa E3-binding protein core-binding domain (residues 261-426), his-tagged (domain or fragment, UniProt Q7RWS2 261-426, looked up)
chain: PAPPPVAVVTAPISLSAAIDVQNKLHKTIGVFLPLSTFITRATEIANQKLPLPANYQPTADELFNQVLGLDKVTRKESRGSYTPTFGSFVAPQRAARKADIIDILAAPSTRVAASAQSKSAAPGLTTSGPNVFSLQVPKSEEKRAQAFLQKMKLVLEQEPDKLVRA
notes: residues 265-346 and 390-425 were built; Trimer inside the E2 core by the cryo-EM reconstruction; also called E3BP CBD; CBD; source: E. coli Rosetta2 (DE3), co-expressed with E2 225-458 from the petDuet vector, purified (Ni-NTA, SEC)
As for B1, in data set [2], the “stoichiometry N” value is 3.

B2: N.crassa E2 C-terminal catalytic transacetylase domain (residues 225-458) (domain or fragment, UniProt P20285 225-458, looked up)
chain: AAYTDVPISGMRKTIAARLKESVTENPHFFVSTNLSVSKLLKLRQALNSSADGRYKLSVNDFLIKAMGIASKRVPTVNSSWRDGVIRQFETVDVSVAVATPNGLITPIVKGVEGKGLESISAAVKELAKKARDGKLKPEEYQGGSISISNMGMNPAVQSFTAIINPPQAAILAVGAPQKVAVPVENEDGTTGVSWDEQIIVTASFDHKVVDGAVGAEWIRELKKVIENPLELLL
notes: Forms trimers that assemble into the icosahedral PDC core; also called E2 CTD; CTD; source: E. coli Rosetta2 (DE3), co-expressed with his-tagged E3BP 261-426 from the petDuet vector, purified (Ni-NTA, SEC)
As to B2, in data set [2], the binding result is “binds”.
